The target of this assay is human folate receptor 1 (FOLR1) (human).

In turn, MorAb-003 (Farletuzumab) (antibody) gave an EC50 of ADCC activity on IGROV-1 cells of 0.16 ng/mL.

The values are drawn from patent US20120009181A1.
